Measured values: patent publication US20250295737A1 (AstraZeneca / MedImmune, published 2025)
Where two headings read alike, the source gives them in different places.

T1: human RXFP1 (human, UniProt Q9HBX9 1-757)
T1 sequence (looked up): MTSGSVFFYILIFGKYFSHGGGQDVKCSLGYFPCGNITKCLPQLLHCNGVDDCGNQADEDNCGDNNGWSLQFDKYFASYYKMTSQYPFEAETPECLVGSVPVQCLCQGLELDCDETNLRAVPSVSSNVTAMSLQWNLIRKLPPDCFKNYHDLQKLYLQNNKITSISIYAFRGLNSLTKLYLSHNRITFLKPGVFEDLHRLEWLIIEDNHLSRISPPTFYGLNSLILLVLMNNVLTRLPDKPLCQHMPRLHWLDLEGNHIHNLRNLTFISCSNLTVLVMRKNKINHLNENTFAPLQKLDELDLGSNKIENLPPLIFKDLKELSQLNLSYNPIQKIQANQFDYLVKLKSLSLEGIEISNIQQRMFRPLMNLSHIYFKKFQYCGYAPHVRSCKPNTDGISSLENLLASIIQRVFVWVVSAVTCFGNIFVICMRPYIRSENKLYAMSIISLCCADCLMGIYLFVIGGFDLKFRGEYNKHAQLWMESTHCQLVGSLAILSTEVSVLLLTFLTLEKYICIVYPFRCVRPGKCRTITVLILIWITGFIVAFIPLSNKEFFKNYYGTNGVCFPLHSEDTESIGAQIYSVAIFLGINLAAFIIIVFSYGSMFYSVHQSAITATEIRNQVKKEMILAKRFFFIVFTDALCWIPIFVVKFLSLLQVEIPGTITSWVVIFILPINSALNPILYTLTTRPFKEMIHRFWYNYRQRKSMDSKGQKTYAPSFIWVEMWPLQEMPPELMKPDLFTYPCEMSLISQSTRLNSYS

T2: mouse RXFP1 (mouse, UniProt Q6R6I7 1-758)
T2 sequence (looked up): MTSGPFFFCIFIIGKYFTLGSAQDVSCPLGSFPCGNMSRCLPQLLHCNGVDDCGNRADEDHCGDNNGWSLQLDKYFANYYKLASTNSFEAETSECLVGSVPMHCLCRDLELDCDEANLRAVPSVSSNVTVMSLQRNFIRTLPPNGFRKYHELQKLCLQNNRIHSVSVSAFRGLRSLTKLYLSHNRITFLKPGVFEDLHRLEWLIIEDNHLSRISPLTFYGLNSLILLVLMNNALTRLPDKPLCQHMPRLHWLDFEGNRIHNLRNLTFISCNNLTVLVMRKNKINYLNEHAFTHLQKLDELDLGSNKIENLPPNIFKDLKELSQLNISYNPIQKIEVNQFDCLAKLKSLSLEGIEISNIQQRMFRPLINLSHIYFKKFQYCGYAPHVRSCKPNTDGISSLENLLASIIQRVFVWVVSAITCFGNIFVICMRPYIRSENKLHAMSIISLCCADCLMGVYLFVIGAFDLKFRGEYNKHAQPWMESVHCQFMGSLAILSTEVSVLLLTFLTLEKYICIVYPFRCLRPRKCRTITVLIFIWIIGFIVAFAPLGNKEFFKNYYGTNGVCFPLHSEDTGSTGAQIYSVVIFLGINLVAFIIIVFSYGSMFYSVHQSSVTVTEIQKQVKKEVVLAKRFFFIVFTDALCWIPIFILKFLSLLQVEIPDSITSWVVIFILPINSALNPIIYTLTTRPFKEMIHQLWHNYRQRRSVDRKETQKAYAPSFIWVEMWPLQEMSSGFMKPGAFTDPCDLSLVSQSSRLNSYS


Key:
Assay in all cases: cell-based or functional assay
human RXFP1 [1] = molecular target: T1, human RXFP1
human RXFP2 [2] = molecular target: T3, human RXFP2 (human, UniProt Q8WXD0 1-754)
T3 sequence (Q8WXD0 whole entry): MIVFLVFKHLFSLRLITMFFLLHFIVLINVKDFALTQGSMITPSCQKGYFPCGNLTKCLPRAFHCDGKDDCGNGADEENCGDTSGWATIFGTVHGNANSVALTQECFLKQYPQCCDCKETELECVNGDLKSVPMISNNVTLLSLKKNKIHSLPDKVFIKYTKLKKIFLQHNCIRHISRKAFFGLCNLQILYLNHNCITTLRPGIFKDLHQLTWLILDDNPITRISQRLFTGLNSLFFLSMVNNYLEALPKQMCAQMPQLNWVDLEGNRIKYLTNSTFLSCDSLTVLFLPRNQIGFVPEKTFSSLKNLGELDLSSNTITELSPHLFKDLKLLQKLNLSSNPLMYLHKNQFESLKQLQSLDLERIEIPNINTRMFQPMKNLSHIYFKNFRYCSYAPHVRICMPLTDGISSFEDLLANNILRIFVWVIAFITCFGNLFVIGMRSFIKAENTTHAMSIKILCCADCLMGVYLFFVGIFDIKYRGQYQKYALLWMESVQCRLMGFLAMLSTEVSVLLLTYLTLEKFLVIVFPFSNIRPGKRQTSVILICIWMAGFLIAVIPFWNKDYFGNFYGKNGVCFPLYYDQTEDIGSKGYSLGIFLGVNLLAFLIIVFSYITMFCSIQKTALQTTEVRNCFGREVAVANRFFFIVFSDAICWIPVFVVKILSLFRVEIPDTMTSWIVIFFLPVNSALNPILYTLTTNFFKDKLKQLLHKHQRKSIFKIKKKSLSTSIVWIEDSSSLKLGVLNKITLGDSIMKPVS

mouse RXFP1 [3] = molecular target: T2, mouse RXFP1
human RXFP1 [4] = molecular target: T1, human RXFP1; remark: listed apart in the source
human RXFP2 [5] = molecular target: T3, human RXFP2; remark: listed apart in the source
mouse RXFP1 [6] = molecular target: T2, mouse RXFP1; remark: listed apart in the source

Row | EC50 hRXFP1 (M), cAMP HTRF assay (human RXFP1 [1]) [M] | EC50 hRXFP2 (M), cAMP HTRF assay (human RXFP2 [2]) [M] | EC50 mRXFP1 (M), cAMP HTRF assay (mouse RXFP1 [3]) [M] | EC50 hRXFP1 (M), cAMP HTRF assay (human RXFP1 [4]) [M] | EC50 hRXFP2 (M), cAMP HTRF assay (human RXFP2 [5]) [M] | EC50 mRXFP1 (M), cAMP HTRF assay (mouse RXFP1 [6]) [M] | Binder
1 | 5.88e-11 | > 1.09e-07 | 2.88e-11 |  |  |  | RELAX0091 (Fc fusion) chain 1: QLYSALANKCCHVGCTKRSLARFCAAAGGGGSGGGGSGGGGSGGGGSACPPCPAPEFEGGPSVFLFPPKPKDTLMISRTPEVTCVVVDVSHEDPEVKFNWYVDGVEVHNAKTKPREEQYNSTYRVVSVLTVLHQDWLNGKEYKCKVSNKALPASIEKTISKAKGQPREPQVYTLPPCREEMTKNQVSLWCLVKGFYPSDIAVEWESNGQPENNYKTTPPVLDSDGSFFLYSKLTVDKSRWQQGNVFSCSVMHEALHNHYTQKSLSLSPG chain 2: SWMEEVIKLCGRELVRAQIAICGMSTWSAAAGGGGSGGGGSGGGGSGGGGSACPPCPAPEFEGGPSVFLFPPKPKDTLMISRTPEVTCVVVDVSHEDPEVKFNWYVDGVEVHNAKTKPREEQYNSTYRVVSVLTVLHQDWLNGKEYKCKVSNKALPASIEKTISKAKGQPREPQVCTLPPSREEMTKNQVSLSCAVKGFYPSDIAVEWESNGQPENNYKTTPPVLDSDGSFFLVSKLTVDKSRWQQGNVFSCSVMHEALHNHYTQKSLSLSPG
2 | 1.06e-11 | 1.61e-08 | 1.74e-11 |  |  |  | RELAX0117 (Fc fusion) chain 1: QLYSALANKCCHVGCTKRSLARFCAAAGGGGSGGGGSGGGGSGGGGSACPPCPAPEFEGGPSVFLFPPKPKDTLMISRTPEVTCVVVDVSHEDPEVKFNWYVDGVEVHNAKTKPREEQYNSTYRVVSVLTVLHQDWLNGKEYKCKVSNKALPASIEKTISKAKGQPREPQVYTLPPCREEMTKNQVSLWCLVKGFYPSDIAVEWESNGQPENNYKTTPPVLDSDGSFFLYSKLTVDKSRWQQGNVFSCSVMHEALHNHYTQKSLSLSPGGGGGSGGGGSGGGGSGGGGGSQLYSALANKCCHVGCTKRSLARFC chain 2: SWMEEVIKLCGRELVRAQIAICGMSTWSAAAGGGGSGGGGSGGGGSGGGGSACPPCPAPEFEGGPSVFLFPPKPKDTLMISRTPEVTCVVVDVSHEDPEVKFNWYVDGVEVHNAKTKPREEQYNSTYRVVSVLTVLHQDWLNGKEYKCKVSNKALPASIEKTISKAKGQPREPQVCTLPPSREEMTKNQVSLSCAVKGFYPSDIAVEWESNGQPENNYKTTPPVLDSDGSFFLVSKLTVDKSRWQQGNVFSCSVMHEALHNHYTQKSLSLSPGGGGGSGGGGSGGGGSGGGGGSSWMEEVIKLCGRELVRAQIAICGMSTWS
3 | 3.77e-11 | 3.24e-08 | 3.27e-11 | 3.32e-11 | 4.2e-08 | 1.36e-11 | RELAX0023 (Fc fusion) chain 1: DKTHTCPPCPAPEFEGGPSVFLFPPKPKDTLMISRTPEVTCVVVDVSHEDPEVKFNWYVDGVEVHNAKTKPREEQYNSTYRVVSVLTVLHQDWLNGKEYKCKVSNKALPASIEKTISKAKGQPREPQVYTLPPCREEMTKNQVSLWCLVKGFYPSDIAVEWESNGQPENNYKTTPPVLDSDGSFFLYSKLTVDKSRWQQGNVFSCSVMHEALHNHYTQKSLSLSPGGGGGSGGGGSGGGGSGGGGGSQLYSALANKCCHVGCTKRSLARFC chain 2: DKTHTCPPCPAPEFEGGPSVFLFPPKPKDTLMISRTPEVTCVVVDVSHEDPEVKFNWYVDGVEVHNAKTKPREEQYNSTYRVVSVLTVLHQDWLNGKEYKCKVSNKALPASIEKTISKAKGQPREPQVCTLPPSREEMTKNQVSLSCAVKGFYPSDIAVEWESNGQPENNYKTTPPVLDSDGSFFLVSKLTVDKSRWQQGNVFSCSVMHEALHNHYTQKSLSLSPGGGGGSGGGGSGGGGSGGGGGSSWMEEVIKLCGRELVRAQIAICGMSTWS
4 | 4.6e-11 | 4.26e-08 | 1.56e-11 |  |  |  | RELAX0024 (Fc fusion) chain 1: DKTHTCPPCPAPEFEGGPSVFLFPPKPKDTLMISRTPEVTCVVVDVSHEDPEVKFNWYVDGVEVHNAKTKPREEQYNSTYRVVSVLTVLHQDWLNGKEYKCKVSNKALPASIEKTISKAKGQPREPQVCTLPPSREEMTKNQVSLSCAVKGFYPSDIAVEWESNGQPENNYKTTPPVLDSDGSFFLVSKLTVDKSRWQQGNVFSCSVMHEALHNHYTQKSLSLSPGGGGGSGGGGSGGGGSGGGGGSQLYSALANKCCHVGCTKRSLARFC chain 2: DKTHTCPPCPAPEFEGGPSVFLFPPKPKDTLMISRTPEVTCVVVDVSHEDPEVKFNWYVDGVEVHNAKTKPREEQYNSTYRVVSVLTVLHQDWLNGKEYKCKVSNKALPASIEKTISKAKGQPREPQVYTLPPCREEMTKNQVSLWCLVKGFYPSDIAVEWESNGQPENNYKTTPPVLDSDGSFFLYSKLTVDKSRWQQGNVFSCSVMHEALHNHYTQKSLSLSPGGGGGSGGGGSGGGGSGGGGGSSWMEEVIKLCGRELVRAQIAICGMSTWS
5 | 4.41e-11 | 3.54e-08 | 2.79e-11 |  |  |  | RELAX0020 (Fc fusion) chain 1: GGAGGACPPCPAPEFEGGPSVFLFPPKPKDTLMISRTPEVTCVVVDVSHEDPEVKFNWYVDGVEVHNAKTKPREEQYNSTYRVVSVLTVLHQDWLNGKEYKCKVSNKALPASIEKTISKAKGQPREPQVYTLPPCREEMTKNQVSLWCLVKGFYPSDIAVEWESNGQPENNYKTTPPVLDSDGSFFLYSKLTVDKSRWQQGNVFSCSVMHEALHNHYTQKSLSLSPGGGGGSGGGGSGGGGSGGGGGSSWMEEVIKLCGRELVRAQIAICGMSTWS chain 2: GGAGGACPPCPAPEFEGGPSVFLFPPKPKDTLMISRTPEVTCVVVDVSHEDPEVKFNWYVDGVEVHNAKTKPREEQYNSTYRVVSVLTVLHQDWLNGKEYKCKVSNKALPASIEKTISKAKGQPREPQVCTLPPSREEMTKNQVSLSCAVKGFYPSDIAVEWESNGQPENNYKTTPPVLDSDGSFFLVSKLTVDKSRWQQGNVFSCSVMHEALHNHYTQKSLSLSPGGGGGSGGGGSGGGGSGGGGGSQLYSALANKCCHVGCTKRSLARFC
6 | 4.74e-11 |  | 3.28e-11 |  |  |  | RELAX0022 (Fc fusion) chain 1: GGAGGACPPCPAPEFEGGPSVFLFPPKPKDTLMISRTPEVTCVVVDVSHEDPEVKFNWYVDGVEVHNAKTKPREEQYNSTYRVVSVLTVLHQDWLNGKEYKCKVSNKALPASIEKTISKAKGQPREPQVYTLPPSREEMTKNQVSLSCAVKGFYPSDIAVEWESNGQPENNYKTTPPVLDSDGSFFLVSKLTVDKSRWQQGNVFSCSVMHEALHNHYTQKSLSLSPGGGGGSGGGGSGGGGSGGGGGSQLYSALANKCCHVGCTKRSLARFC chain 2: GGAGGACPPCPAPEFEGGPSVFLFPPKPKDTLMISRTPEVTCVVVDVSHEDPEVKFNWYVDGVEVHNAKTKPREEQYNSTYRVVSVLTVLHQDWLNGKEYKCKVSNKALPASIEKTISKAKGQPREPQVYTLPPSREEMTKNQVSLWCLVKGFYPSDIAVEWESNGQPENNYKTTPPVLDSDGSFFLYSKLTVDKSRWQQGNVFSCSVMHEALHNHYTQKSLSLSPGGGGGSGGGGSGGGGSGGGGGSSWMEEVIKLCGRELVRAQIAICGMSTWS
7 | 8.27e-11 |  | 4.14e-11 |  |  |  | RELAX0021 (Fc fusion) chain 1: GGAGGACPPCPAPEFEGGPSVFLFPPKPKDTLMISRTPEVTCVVVDVSHEDPEVKFNWYVDGVEVHNAKTKPREEQYNSTYRVVSVLTVLHQDWLNGKEYKCKVSNKALPASIEKTISKAKGQPREPQVYTLPPSREEMTKNQVSLWCLVKGFYPSDIAVEWESNGQPENNYKTTPPVLDSDGSFFLYSKLTVDKSRWQQGNVFSCSVMHEALHNHYTQKSLSLSPGGGGGSGGGGSGGGGSGGGGGSQLYSALANKCCHVGCTKRSLARFC chain 2: GGAGGACPPCPAPEFEGGPSVFLFPPKPKDTLMISRTPEVTCVVVDVSHEDPEVKFNWYVDGVEVHNAKTKPREEQYNSTYRVVSVLTVLHQDWLNGKEYKCKVSNKALPASIEKTISKAKGQPREPQVYTLPPSREEMTKNQVSLSCAVKGFYPSDIAVEWESNGQPENNYKTTPPVLDSDGSFFLVSKLTVDKSRWQQGNVFSCSVMHEALHNHYTQKSLSLSPGGGGGSGGGGSGGGGSGGGGGSSWMEEVIKLCGRELVRAQIAICGMSTWS
